Results taken from the RNAGym collection of RNA variant scans (doi:10.7554/elife.90254).

B1: LINE1-full (parent)
chain: UACGUAGGUGGUUUUCCCCUGAUAGUGCUAAGGGGGCCUGGAAGUUUGGACUGGGCAGAGCUCAACACAGCGUGGCAAAGUGGCUGUGGCUAGACUGCCUCUCUGGAUUCCUCGUCACUCAGCAGGGCAUCUCUGAGAGAAAUGCC

Variants of: B1
Experiment: self-cleavage, relative activity (ratio to wild type); higher = more cleavage; in vitro, sequencing; the parent is a self-cleaving ribozyme

| Variant | self-cleavage |
| --- | --- |
| U73G A124G | 0.78 |
| U73G A124U | 1.36 |
| U73G A136U | 0.81 |
| U73G A142G | 1.2 |
| U73G C84U | 0.17 |
| U73G U85G | 0.06 |
| U73G U87A | 0.03 |
| U73G U91C | 0.29 |
| U73G U115C | 2.26 |
| U73G U130C | 2.25 |
| U73G U132C | 1.58 |
| U73G U134A | 0.88 |
| G74A A79G | 0.8 |
| G74A A79U | 2.06 |
| G74A A92U | 0.1 |
| G74A A94U | 0.17 |
| G74A A117C | 1.63 |
| G74A A121G | 1.43 |
| G74A A124C | 1.58 |
| G74A A124G | 0.51 |
| G74A A129G | 1.53 |
| G74A A129U | 1.09 |
| G74A A138G | 1.26 |
| G74A A140G | 1.22 |

| Variant | self-cleavage |
| --- | --- |
| G74A A140U | 1.31 |
| G74A A142G | 1.1 |
| G74A C84U | 0.07 |
| G74A G86A | 0 |
| G74A U85A | 0.05 |
| G74A U87A | 0.07 |
| G74A U96A | 0.07 |
| G74A U100A | 0.7 |
| G74A U102G | 0.56 |
| G74A U104C | 1.34 |
| G74A U108C | 1.48 |
| G74A U115A | 1.45 |
| G74A U119C | 1.71 |
| G74A U130G | 1.51 |
| G74C A140G | 1.53 |
| G74C C99U | 0.61 |
| G74C U102C | 0.88 |
| G74U A77G | 1.01 |
| G74U A78U | 2.2 |
| G74U A92G | 0.06 |
| G74U A107G | 0.51 |
| G74U A121U | 1.02 |
| G74U A140G | 1.99 |
| G74U A142G | 1.63 |

| Variant | self-cleavage |
| --- | --- |
| G74U G114A | 1.21 |
| G74U U91A | 0.57 |
| G74U U91C | 0.59 |
| G74U U102C | 1.42 |
| G74U U130C | 1.64 |
| G74U U134C | 1.88 |
| G75A | 1.11 |
| G75A A78G | 0.7 |
| G75A A117U | 1.53 |
| G75A A124G | 0.72 |
| G75A A136G | 1.35 |
| G75A A140G | 0.88 |
| G75A G83A | 0.76 |
| G75A G86C | 0.07 |
| G75A G126A | 0.87 |
| G75A U87C | 0.12 |
| G75A U102A | 1.36 |
| G75A U104A | 0.87 |
| G75A U104C | 1.43 |
| G75A U109A | 0.99 |
| G75A U109C | 1.1 |
| G75A U115A | 1.12 |
| G75A U130C | 0.95 |
| G75A U132A | 1.15 |

| Variant | self-cleavage |
| --- | --- |
| G75A U134A | 1 |
| G75C | 0.6 |
| G75C A77G | 0.8 |
| G75C A77U | 0.75 |
| G75C A142G | 0.85 |
| G75C U108C | 0.77 |
| G75C U134C | 0.58 |
| G75U | 0.62 |
| G75U A142U | 0.84 |
| G75U C90U | 0.03 |
| G75U G139A | 0.89 |
| G75U U81C | 0.83 |
| G75U U85C | 0.07 |
| G75U U104C | 1.32 |
| C76A | 1.71 |
| C76A A78G | 1.68 |
| C76A A136G | 1.79 |
| C76A A141G | 2.26 |
| C76A A142G | 1.87 |
| C76A G106U | 1.2 |
| C76A U87C | 0.38 |
| C76A U87G | 0.11 |
| C76A U102C | 1.39 |
| C76A U132C | 2.08 |

| Variant | self-cleavage |
| --- | --- |
| C76A U134A | 0.84 |
| C76G | 2.01 |
| C76U | 2.18 |
| C76U A77U | 2.05 |
| C76U A79G | 2.1 |
| C76U A92G | 0.06 |
| C76U A94C | 0.11 |
| C76U A107G | 2.53 |
| C76U A117U | 2.41 |
| C76U A129G | 2.87 |
| C76U A136G | 1.75 |
| C76U A141C | 1.29 |
| C76U A141G | 1.18 |
| C76U A142G | 2.37 |
| C76U C98U | 0.61 |
| C76U C101A | 1.6 |
| C76U G137U | 1.87 |
| C76U U96A | 0.05 |
| C76U U96C | 0.13 |
| C76U U100C | 2.91 |
| C76U U112A | 2.4 |
| C76U U115C | 2.12 |
| C76U U119C | 2.91 |
| C76U U130C | 2.22 |

| Variant | self-cleavage |
| --- | --- |
| C76U U132A | 2.54 |
| C76U U143A | 2.12 |
| A77C | 0.98 |
| A77C A121G | 1.55 |
| A77C A124G | 0.32 |
| A77C A140G | 1.16 |
| A77C G93A | 0.06 |
| A77C G126A | 1.25 |
| A77C U85A | 0.18 |
| A77C U91A | 0.38 |
| A77C U96C | 0.09 |
| A77C U100C | 1.53 |
| A77C U102A | 1.37 |
| A77C U108C | 1.6 |
| A77C U115C | 0.6 |
| A77C U132C | 1.19 |
| A77C U143C | 1.12 |
| A77G | 2.12 |
| A77G A79G | 0.95 |
| A77G A94G | 0.68 |
| A77G A94U | 0.61 |
| A77G A107G | 2.08 |
| A77G A117G | 2.32 |
| A77G A121G | 1.69 |

| Variant | self-cleavage |
| --- | --- |
| A77G A124G | 1.9 |
| A77G A124U | 1.84 |
| A77G A129G | 2.21 |
| A77G A136G | 2.64 |
| A77G A136U | 1.92 |
| A77G A138G | 2.3 |
| A77G A141G | 2.25 |
| A77G A141U | 1.89 |
| A77G C90A | 0.03 |
| A77G C98A | 0.23 |
| A77G C98G | 0.21 |
| A77G C103A | 2.24 |
| A77G C103U | 1.99 |
| A77G C110U | 0.71 |
| A77G C113A | 2.1 |
| A77G C113U | 2.28 |
| A77G C128G | 1.86 |
| A77G C133U | 1.99 |
| A77G G83A | 1.75 |
| A77G G88A | 0.09 |
| A77G G89A | 0.03 |
| A77G G93U | 0.05 |
| A77G G97C | 0.65 |
